Results as given in US20230127087.

Molecular target: Glypican-3 (GPC3) (UniProt P51654)
Assay: filter
Conditions: n = BzdU (benzyl-modified dU); unit not given; Bmax 0.79; SB18T0.05, 37 C; 32P-labelled aptamer, protein titrated from 100 nM

Glypican-3 (GPC3), sequence (P51654 25-554): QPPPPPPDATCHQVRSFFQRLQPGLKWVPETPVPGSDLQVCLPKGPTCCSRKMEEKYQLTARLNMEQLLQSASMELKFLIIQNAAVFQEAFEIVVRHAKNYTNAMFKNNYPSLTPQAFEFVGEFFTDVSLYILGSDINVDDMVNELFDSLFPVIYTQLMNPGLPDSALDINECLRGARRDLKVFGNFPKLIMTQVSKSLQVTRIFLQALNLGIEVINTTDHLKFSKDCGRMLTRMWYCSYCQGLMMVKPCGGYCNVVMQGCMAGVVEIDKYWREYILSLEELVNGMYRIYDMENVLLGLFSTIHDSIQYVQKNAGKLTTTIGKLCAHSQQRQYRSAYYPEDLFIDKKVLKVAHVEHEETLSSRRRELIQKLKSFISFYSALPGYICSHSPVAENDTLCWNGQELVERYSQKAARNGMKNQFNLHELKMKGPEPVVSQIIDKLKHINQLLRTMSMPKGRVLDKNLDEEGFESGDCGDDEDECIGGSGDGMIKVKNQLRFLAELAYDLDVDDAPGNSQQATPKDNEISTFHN

## GGGAAGTGAATGCGTTGAATTATGTCCCTTCAGTCATCAC [2428-12-10 (12-10)]
  Kd: 1.5
